Laboratory results reported in US7579186 (Amgen, dated 2009).

T1: rat TβRII expressed on the cell surface of rat kidney-derived fibroblast cell line NRK-49F (rat, UniProt P38438 24-567)
T1 construct: whole, on cells
T1 sequence (looked up): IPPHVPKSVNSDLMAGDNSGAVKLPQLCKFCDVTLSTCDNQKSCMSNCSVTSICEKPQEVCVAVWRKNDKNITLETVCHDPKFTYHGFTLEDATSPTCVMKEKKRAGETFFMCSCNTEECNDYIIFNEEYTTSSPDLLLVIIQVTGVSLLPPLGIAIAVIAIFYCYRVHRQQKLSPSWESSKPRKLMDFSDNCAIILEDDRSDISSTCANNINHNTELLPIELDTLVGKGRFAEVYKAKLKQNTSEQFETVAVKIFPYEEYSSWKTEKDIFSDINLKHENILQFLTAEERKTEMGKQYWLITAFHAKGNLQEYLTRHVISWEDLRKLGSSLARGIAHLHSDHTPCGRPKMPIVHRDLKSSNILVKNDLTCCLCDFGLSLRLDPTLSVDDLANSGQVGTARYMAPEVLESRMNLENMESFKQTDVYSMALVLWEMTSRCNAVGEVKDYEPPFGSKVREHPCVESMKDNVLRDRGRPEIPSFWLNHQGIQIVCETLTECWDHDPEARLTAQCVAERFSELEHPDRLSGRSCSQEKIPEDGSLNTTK


Key:
[1] = biological target: T2, purified soluble recombinant human TβRII (extracellular domain of human TGF-β type II receptor, prepared in … (human, UniProt P37173 23-159)); test: SPR (Biacore X), soluble TβRII immobilised on the chip, antibody injected
T2 construct: The range 1-159 is as printed; also called purified human soluble TβRII; purified soluble human TβRII
Experimental: HBS buffer (containing 0.01 M HEPES, 0.15 M NaCl, 3 mM EDTA, and 0-0.005% Detergent P20, pH 7.0) was injected through a flow cell-1 attached to the kit at a flow rate of 5 μl/min. Then, 35 μl of a solution consisting of 0.005 M NHS (N-hydroxysuccinimide) and 0.2 M EDC (N-ethyl-N'-(dimethylaminopropyl)carbodiimide) was injected to activate the carboxyl groups of the CM coated on the sensor chip.
Then, 70 μl of purified soluble human TβRII (30 μg/ml; dissolved in 10 mM sodium acetate buffer (pH 5.0)) prepared in Example 2 was injected over the chip to be immobilized on the sensor chip.
Phosphate buffer was injected to the flow cell (sensor chip) at a flow rate of 20 μl/minute, and each of the purified human anti-human TGF-β type II receptor monoclonal antibody prepared in the above Example (40 to 100 μg/ml, 60 μl) was added thereto.

[2] = biological target: T1, rat TβRII expressed on the cell surface …; test: flow cytometry on rat kidney-derived fibroblast cell line NRK-49F, antibody at 5 µg/ml, biotin-labeled anti-human immunoglobulin (Fc) antibody and streptavidin-PE [d]
Experimental: (§1) Further, similarly, the reactivity against rat TβRII of each of the various human anti-human TβRII monoclonal antibodies was analyzed by cell staining (by flow cytometry) using rat kidney-derived fibroblast cell line NRK-49F (ATCC CRL-1570) expressing rat TβRII on cell surface.
(§2) Each of the human anti-human TβRII monoclonal antibodies of the present invention or commercially available goat anti-human TβRII polyclonal antibody (R&D) (300 μl, 5 μg/ml) (diluted with phosphate buffer containing 0.1% BSA) was added to the respective cells (1 to 2 ×10^4 cells). The mixtures were incubated at 4° C. for one hour, and then centrifuged (at 1,500 rpm for three minutes). The supernatants were discarded, and the cells were washed twice with phosphate buffer. The biotin-labeled anti-human immunoglobulin (Fc) antibody (200 μl; American Qualex International Inc.) was added to the samples containing the human antibodies. The biotin-labeled anti-goat immunoglobulin antibody (200 μl; Amersham Pharmacia) was added to the samples containing the goat antibody. The samples were incubated at 4° C. for one hour.
(§3) Then, each sample was centrifuged (at 1,500 rpm for three minutes), and the supernatant was discarded. […] The samples were fluorescently analyzed with FACStar fluorescence-activated cell sorter (Becton Dickinson) (fluorescence wavelength: a DF585/42 filter, excitation wavelength: 488 nm).

[3] = biological target: T1, rat TβRII expressed on the cell surface …; test: flow cytometry on rat kidney-derived fibroblast cell line NRK-49F, antibody at 5 µg/ml, biotin-labeled anti-human immunoglobulin (Fc) antibody and streptavidin-PE [f]
Experimental: as §1, §2, §3

[4] = biological target: T3, goat anti-human TβRII polyclonal antibody (R&D); test: sandwich ELISA: goat anti-human TβRII polyclonal antibody coated, soluble TβRII titrated, detection with the biotin-labeled goat anti-human TβRII polyclonal antibody and streptavidin-β-galactosidase (fluorescence)
T3 construct: Polyclonal reagent; also called anti-human soluble TβRII polyclonal antibody (R&D); commercially available anti-human TβRII polyclonal antibody
Experimental: Establishment of a Quantitative Method with Sandwich ELISA for Human Soluble TβRII <1-1> Establishment of a Sandwich ELISA System to Quantify Soluble Recombinant Human TβRII Goat anti-human TβRII polyclonal antibody (R&D) was diluted with phosphate buffer, and added to each well of a 96-well ELISA microplate (Corning) at a concentration of 0.1 μg/50 μl/well. The plate was incubated at room temperature for one hour to allow adsorption of the polyclonal antibody.
The assay sample was added to each well of the antibody-immobilized microplate (50 μl/well), and the plate was incubated at room temperature for one hour. Then, the microplate was washed three times with phosphate buffer containing 0.1% Tween20. Biotin-labeled goat anti-human TβRII polyclonal antibody (R&D) (diluted with phosphate buffer containing 1% BSA and 0.1% Tween20) was then added to each well at a concentration of 0.025 μg/50 μl/well. The plate was incubated at room temperature for one hour.
A calibration curve was prepared with the sandwich ELISA established in Example <1-1> using commercially available soluble recombinant human TβRII (R&D) as a standard.

| Kd [1] [nM] | koff [1] [s⁻¹] | binding result [2] | binding result [3] | EC50 (read off the curve) [4] [ng/mL] | Binder |
| --- | --- | --- | --- | --- | --- |
| 51 | 0.014 | binds |  |  | human anti-human TβRII monoclonal antibody TR4C175 (antibody, V domains shown, Human IgG4/kappa purified from hybridoma supernatant (transgenic mouse); VH gene 3-21 (DP-77), VL gene A30; The stated signal residues must be removed from the entries; also called Clone TR4C175; TRC175) VH: EVQLVESGGGLVKPGGSLRLSCAASGFTFSSFSMNWVRQAPGKGLEWVSSISSSSSYIYYTDSVKGRFTISRDNAKNSLYLQMNSLRAEDTAVYYCARGYWGFDYWGQGTLVTVSS VL: DIQMTQSPSSLSASVGDRVTITCRASQGIRNDLGWYQQKPGKAPKRLIYAASSLQSGVPSRFSGSASGTEFTLTISSLQPEDFATYYCLQHNSNPLTFGGGTKVEIKR |
| 3.4 | 0.00012 |  | binds |  | human anti-human TβRII monoclonal antibody TR4D455 (antibody, human IgG4, V domains shown, Human IgG4/kappa purified from hybridoma supernatant; VH gene 5-51 (DP-73), VL gene A19 (DPK-15); The stated signal residues must be removed from the entries; also called Clone TR4D455) VH: EVQLVQSGAEVKKPGESLKISCKGSGYSFTSYWIGWVRQMPGKGLEWMGIIYPGDSDTRYSPSFQGQVTISADKSISTAYLQWSSLKASDTAMYYCARVGGCSGGSCYLWGQGNLVTVSS VL: not shown |
|  |  |  |  | ~2 | commercially available soluble recombinant human TβRII (R&D) (receptor, UniProt P37173 23-159, looked up, Bought product; also called standard substance) TIPPHVQKSVNNDMIVTDNNGAVKFPQLCKFCDVRFSTCDNQKSCMSNCSITSICEKPQEVCVAVWRKNDENITLETVCHDPKLPYHDFILEDAASPKCIMKEKKKPGETFFMCSCSSDECNDNIIFSEEYNTSNPD |
